This is an account of results in US20110059097A1 (UNIVERSITY HEALTH NETWORK, published 2011).

The assay concerns the target T1, murine MFAP4 (microfibrillar-associated protein-4) on mouse DNT cells (murine, UniProt Q9D1H9 23-257).
T1 sequence: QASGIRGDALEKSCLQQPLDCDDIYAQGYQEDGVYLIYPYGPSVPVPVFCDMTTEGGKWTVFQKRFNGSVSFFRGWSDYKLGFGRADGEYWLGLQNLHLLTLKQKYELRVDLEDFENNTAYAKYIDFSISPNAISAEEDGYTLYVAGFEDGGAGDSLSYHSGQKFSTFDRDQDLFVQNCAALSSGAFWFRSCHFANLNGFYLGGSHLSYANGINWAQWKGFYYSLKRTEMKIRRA
The experiment in a line: flow cytometry on mouse DNT cell clones (target later identified as MFAP4).

B1: G1 monoclonal antibody (antibody, V domains shown)
VH: EVKLVESGGGLVQPGRSLKLSCAASGFPFSNYGMAWVRQAPTKGLAWVATISYDGRSTYYRDSVKGRFTISRNNAKSTLYLQMDSLRSEDTATYYCVRHELPEDHWGQGVMVTVSS
VL: DIVMTQSPFSLAVSEGEMVTINCKSGQSLLSSGNQKNYLAWYQQKPGQSPKLLIYYSSTRQSGVPDRFIGSGSGTDFTLTISDVQAEDLADYYCLQHYSSPFTFGSGTKLEIK
notes: Hybridoma monoclonal antibody raised against cell surface molecules of tumor-reactive mouse DNT cells; also called G1 mAb; mAb (clone: G1)
Consider B1, for which the binding result is given as “binds”.
